The source of these data is patent US6600012 (BIOMIRA, dated 2003).

The target of assay [1] is T1, HLA.A2 on T2 mutant cells.
T1 construct: MHC class I molecule on the T2 cell surface; also called HLA.A2.1; class I on T2 cells
The assay is described as follows: T2 cell HLA.A2 upregulation assay, flow cytometry with MA2.1.

For assay [2], the target named is T1, HLA.A2 on T2 mutant cells. The assay is described as follows: T2 cell HLA.A2 upregulation assay, flow cytometry. On the technique in general: Flow cytometry measures light scatter and fluorescence of single cells or particles in a stream.

B1: GVTSAPDTR, MUC-1 tandem repeat synthetic 9 mer (peptide)
peptide: GVTSAPDTR
As to B1, the “% Change in mean channel intensity” value in assay [1] is 12%.

B2: TSAPDTR, MUC-1 synthetic 7 mer (peptide)
peptide: TSAPDTR
notes: also called 7 mer TSA . . . peptide
Regarding B2, the binding result in assay [2] is listed as “no binding (tested: 50 µM/well)”.

B3: SIINFEKL, 8-mer ovalbumin (OVA) peptide (peptide)
peptide: SIINFEKL
notes: It is the positive control for HLA.A2 upregulation and the negative control for killing
For B3, the binding result in assay [2] is recorded as “binds”.

B4: APDTRPAPG, MUC-1 tandem repeat synthetic 9 mer (peptide)
peptide: APDTRPAPG
Take B4: the “% Change in mean channel intensity” value in assay [1] turned out to be 66%.

B5: PDTRPAPGS, MUC-1 tandem repeat synthetic 9 mer (peptide)
peptide: PDTRPAPGS
On to B5, for which the “% Change in mean channel intensity” value in assay [1] worked out at 3%.

B6: DTRPAPGST, MUC-1 tandem repeat synthetic 9 mer (peptide)
peptide: DTRPAPGST
In the case of B6, the “% Change in mean channel intensity” value in assay [1] was determined as 52%.

B7: VTSAPDTRP, MUC-1 tandem repeat synthetic 9 mer (peptide)
peptide: VTSAPDTRP
Regarding B7, the “% Change in mean channel intensity” value in assay [1] came out at 29%.

B8: TSAPDTRPA, MUC-1 tandem repeat synthetic 9 mer (peptide)
peptide: TSAPDTRPA
notes: also called TSA 9 mer; 9 mers TSA . .
Regarding B8, in assay [1], the “% Change in mean channel intensity” value turned out to be 256%.
